Measurements from paper PMC8311496.

System: PE6 (Mycobacterium tuberculosis)
Conditions: 10 mM Tris-HCl pH 7.4, 100 mM NaCl, 298 K (fluorescence titration)

dsDNA (unspecified)
Kd: 1400 nM
